For this assay, the target named is GST-Abp1^SH3 (UniProt Q62418). Nature of the assay: pull-down.

For “endogenous Cobl-like from rat brain extracts (natural protein)”, the increase of complex formation with 2 µM Ca2+ over Ca2+-free control worked out at 46%.
